T1: recombinant WNV E protein containing only DIII (West Nile virus, UniProt Q9Q6P4 586-694)
T1 construct: domain: DIII
T1 sequence: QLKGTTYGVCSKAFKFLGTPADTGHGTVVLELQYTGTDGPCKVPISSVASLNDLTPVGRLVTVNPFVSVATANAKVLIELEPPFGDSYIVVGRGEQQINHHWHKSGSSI

T2: West Nile virus E protein T64Q variant on RVPs (West Nile virus (WNV1 NY99 strain), UniProt Q9Q6P4 291-791, T64Q)
T2 sequence (looked up): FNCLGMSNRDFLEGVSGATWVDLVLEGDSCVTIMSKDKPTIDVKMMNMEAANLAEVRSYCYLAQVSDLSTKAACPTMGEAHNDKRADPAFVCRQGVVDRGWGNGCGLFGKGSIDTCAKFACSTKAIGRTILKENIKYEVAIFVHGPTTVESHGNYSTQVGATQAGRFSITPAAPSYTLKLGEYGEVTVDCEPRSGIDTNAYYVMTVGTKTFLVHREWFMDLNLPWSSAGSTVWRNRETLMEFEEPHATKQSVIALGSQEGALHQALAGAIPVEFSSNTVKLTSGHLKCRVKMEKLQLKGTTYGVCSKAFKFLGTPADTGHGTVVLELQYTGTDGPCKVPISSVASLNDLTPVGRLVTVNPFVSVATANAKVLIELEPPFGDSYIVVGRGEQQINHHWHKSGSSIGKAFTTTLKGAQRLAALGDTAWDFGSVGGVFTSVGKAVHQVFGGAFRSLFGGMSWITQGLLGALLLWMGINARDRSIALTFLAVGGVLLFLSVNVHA

T3: West Nile virus E protein T208K variant on RVPs (West Nile virus (WNV1 NY99 strain), UniProt Q9Q6P4 291-791, T208K)
T3 sequence (looked up): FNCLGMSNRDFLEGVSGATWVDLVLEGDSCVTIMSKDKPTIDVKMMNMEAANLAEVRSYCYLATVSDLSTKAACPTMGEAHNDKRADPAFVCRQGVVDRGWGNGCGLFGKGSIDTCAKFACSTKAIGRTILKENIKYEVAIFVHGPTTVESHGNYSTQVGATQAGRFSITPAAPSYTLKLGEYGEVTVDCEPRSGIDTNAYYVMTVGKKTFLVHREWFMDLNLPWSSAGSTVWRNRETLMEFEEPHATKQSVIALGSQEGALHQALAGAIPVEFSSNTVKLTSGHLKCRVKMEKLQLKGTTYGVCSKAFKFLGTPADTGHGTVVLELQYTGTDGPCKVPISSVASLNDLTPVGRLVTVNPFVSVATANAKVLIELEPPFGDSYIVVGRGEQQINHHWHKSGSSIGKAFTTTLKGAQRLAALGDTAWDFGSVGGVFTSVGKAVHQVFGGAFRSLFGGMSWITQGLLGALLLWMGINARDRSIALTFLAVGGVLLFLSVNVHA


Assays:
[1] = target: T1, recombinant WNV E protein containing …; assay: ELISA on plate-coated recombinant DIII
[2] = target: T2, West Nile virus E protein T64Q variant …; assay: cell-based or functional assay
[3] = target: T3, West Nile virus E protein T208K variant …; assay: cell-based or functional assay

Row | Binder | binding result [1] | fold increase in neutralization IC50 relative to WT RVPs [2] [fold] | fold increase in neutralization IC50 relative to WT RVPs [3] [fold]
1 | human mAb WNV-10 (antibody, V domains shown) VH: QVQLVESGGGVVQPGRSLRLSCAASGFTFSSHAMHWVRQAPGKGLEWVAVISYDIINEYYADSVKGRFTISRDNSKNTLYLQMNSLRAEDTAVYYCARDGYFPNSSGEGFFDYWGQGTLVTVSS VL: EIVMTQSPATLSVSPGERATLSCRASQSLSNNLAWYQQKPGQAPRLLIYGASTRATGIPARFSGSGSGTQFTLTISSLQSEDIAVYYCQQFNNWPWTFGQGTKVEIK | no binding |  | 
2 | human mAb WNV-62 (antibody, V domains shown) VH: QVQLVESGGGVVQPGRSLRLSCAASGFTFSSYGMHWVRQAPGKGLEWVAVMSYDGSKIYYADSVKGRFTISRDNSKNTLYLQMDSLRAEDTAVYYCAKVGYYDGSRYDLIAEYFQYWGQGTLVTVSS VL: QSVLTQPPSVSGAAGQRVTISCTGSSSNIGAGYDVHWYQQLPGTAPKLLIYGNNNRPSGVPDRFSGSKSDTSASLAITGLRPEDELDYYCQSYDNRLSAYVFGTGTKVTVL | no binding |  | 
3 | human mAb WNV-57 (antibody, V domains shown) VH: QVQLVESGGGVVQPGRSLRLACAASGFTLSDFAIHWVRQAPGKGLEWVAIISYDGNIKYYADSVKGRFTISSDNSKNTVYLQMNSLRAEDTAMYYCARDPDVVETAHDAFDIWGQGTLVTVSS VL: DILMTQSPSSLSASVGDRVTITCRASQNIKNYLNWYQQKPGKAPKLLIYAASSLQSLVPSRFSGSGSGTDFTLTISSLQPEDFATYYCQQSYSSFRTFGQGTKVEVK | no binding |  | 
4 | human mAb WNV-86 (antibody, V domains shown) VH: QVQLVQSGGGLVQPGRSLRLCCAASGFSFDDFAMHWVRQAPGKGLEWVSGINWNSGHIGYADSVKGRFTISRDNAKNSLCLQMNSLRPEDTALYYCAKDRAYYFGSGTSGGAFDVWGQGTLVTVSS VL: DIVMTQSPSSLSASVGDRVTITCRASQNIISYLNWYQQKPGKAPKLLIYDASSLQSGVPSRFSGSGSGTDFTLTISSLQPEDFATYYCQRSFSTPLTFGGGTKVEIK |  | 88 | 13
